Measurements as given in PMC12079668, “Nanobodies against Cavin1 reveal structural flexibility and regulated interactions of its N-terminal coiled-coil domain” (Journal of Cell Science, 2025).

Assays:
[1] = target: the molecule itself; assay: crystal structure; complex formed with 1.5-fold molar excess of NbB7 and purified by SEC; hanging-drop vapour diffusion, 20°C; X-ray
[2] = target: T1, mouse Cavin1 HR1 H102I/T105I (HT/II) mutant (Mus musculus, UniProt O54724, H102I | T105I); assay: ITC; 200 μM NbA12 or NbB7 titrated into 6.25 μM trimeric mC1-HR1 HT/II or TS/DD mutant; GF150 buffer, 25°C; single-site fit; settings: both partners purified
T1 construct: mouse Cavin1 (PTRF), HR1 domain with H102I and T105I; also called mC1 HR1 HT/II mutant; mC1-HR1(HT/II); source: E. coli BL21 CodonPlus (DE3), purified (glutathione Sepharose, GST removed on-column with thrombin, SEC); not shown: GST, N-terminal, cleaved

[3] = target: T2, mouse Cavin1 HR1 T105D/S106D (TS/DD) mutant (Mus musculus, UniProt O54724, T105D | S106D); assay: as above; settings: both partners purified
T2 construct: mouse Cavin1 (PTRF), HR1 domain with T105D and S106D (phosphomimetic); also called mC1 HR1 TS/DD mutant; mC1-HR1(TS/DD); source: E. coli BL21 CodonPlus (DE3), purified (glutathione Sepharose, GST removed on-column with thrombin, SEC); not shown: GST, N-terminal, cleaved

[4] = target: T3, zebrafish Cavin4b HR1 domain (residues 12-133) (Danio rerio (Zebrafish) (Brachydanio …, UniProt Q5PQY9)); assay: ITC; NbA12 at 500 μM or NbB7 at 400 μM titrated into 30 μM (monomer) cavin HR1 domain or His-MBP full-length mC1; GF150 buffer (20 mM HEPES pH 7.4, 150 mM NaCl), 25°C; fitted with a 1:1 binding ratio; settings: both partners purified
T3 construct: zebrafish Cavin4b, HR1 domain, residues 12-133 (codon-optimised construct); also called zC4b-HR1; zC4b HR1; source: E. coli BL21 CodonPlus (DE3), purified (TALON, SEC)

[5] = target: T4, mouse Cavin1 HR1 Q76A (residues 45-155) (Mus musculus, UniProt O54724, Q76A); assay: as above; settings: both partners purified
T4 construct: mouse Cavin1 (PTRF), HR1 domain, residues 45-155, Q76A; also called mC1 HR1 Q76A; source: E. coli BL21(DE3)pLysS, purified (TALON, SEC)

endogenous Cavin1 (HeLa) = target: T5, endogenous Cavin1 (HeLa) (Homo sapiens (Human)., UniProt Q6NZI2); assay: co-IP; lysates of HeLa cells expressing NbA12–GFP or NbB7–GFP, GFP-binding nanobody on NHS-activated Sepharose; 0.5% Triton X-100; endogenous Cavin1 and CAV1 detected by western blot; settings: partners not purified
T5 construct: Cavin1 (PTRF), endogenous in human HeLa cells; also called PTRF; source: endogenous, HeLa lysate

endogenous CAV1 (HeLa) = target: T6, endogenous CAV1 (HeLa) (Homo sapiens (Human)., UniProt Q03135); assay: as above; settings: partners not purified
T6 construct: CAV1 (caveolin 1), endogenous in human HeLa cells; also called caveolin 1; source: endogenous, HeLa lysate

[6] = target: T7, mouse Cavin1 HR1 domain H102I/T105I (HT/II) mutant (Mus musculus, UniProt O54724, H102I | T105I); assay: ITC; 200 μM NbA12 or NbB7 titrated into 6.25 μM trimeric mC1-HR1 HT/II or TS/DD mutant; GF150 buffer, 25°C; single-site fit; settings: both partners purified
T7 construct: mouse Cavin1 (PTRF), HR1 domain, residues 45-155, H102I/T105I; pGEX-4T2, GST removed with thrombin; also called mC1-HR1(HT/II); source: E. coli BL21 CodonPlus (DE3), purified (glutathione Sepharose, thrombin on-column, SEC); not shown: GST, N-terminal, cleaved

[7] = target: T8, mouse Cavin1 HR1 domain T105D/S106D (TS/DD) mutant (Mus musculus (Mouse)., UniProt O54724, T105D | S106D); assay: as above; settings: both partners purified
T8 construct: mouse Cavin1 (PTRF), HR1 domain, residues 45-155, T105D/S106D (phosphomimetic); pGEX-4T2, GST removed with thrombin; also called mC1-HR1(TS/DD); source: E. coli BL21 CodonPlus (DE3), purified (glutathione Sepharose, thrombin on-column, SEC); not shown: GST, N-terminal, cleaved

[8] = target: T9, zebrafish Cavin4b HR1 domain (Danio rerio, UniProt A0A8M1N3J3); assay: ITC; NbA12 at 500 μM or NbB7 at 400 μM titrated into 30 μM (monomer) HR1 domain of cavins or His-MBP full-length mC1; GF150 buffer (20 mM HEPES pH 7.4, 150 mM NaCl), 25°C; single-site fit; settings: both partners purified
T9 construct: zebrafish Cavin4b, HR1 domain; Codon-optimised construct; also called zC4b-HR1; source: E. coli BL21 CodonPlus (DE3), purified (TALON, SEC)

[9] = target: T10, mouse Cavin1 HR1 domain (residues 45–155), His-Ub-tagged (Mus musculus (Mouse)., UniProt O54724); assay: as above; settings: both partners purified
T10 construct: mouse Cavin1 (PTRF), HR1 coiled-coil domain, residues 45-155; pHUE vector; the methods say the His-Ub proteins were used for ITC; removal of the tag is not described; also called mC1-HR1; wild-type HR1 domain; source: E. coli BL21(DE3)pLysS, purified (TALON, SEC)

[10] = target: T11, zebrafish Cavin4a HR1 domain (residues 16-123) (Danio rerio, UniProt A1L260); assay: ITC; NbA12 at 500 μM or NbB7 at 400 μM titrated into 30 μM (monomer) cavin HR1 domain or His-MBP full-length mC1; GF150 buffer (20 mM HEPES pH 7.4, 150 mM NaCl), 25°C; fitted with a 1:1 binding ratio; settings: both partners purified
T11 construct: zebrafish Cavin4a, HR1 domain, residues 16-123 (codon-optimised construct); also called zC4a-HR1; zC4a HR1; source: E. coli BL21 CodonPlus (DE3), purified (TALON, SEC)

[11] = target: T12, GST-tagged mouse Cavin1 HR1 domain (Mus musculus (Mouse)., UniProt O54724); assay: pull-down; GST–mC1-HR1 (1 nmol) as bait on glutathione Sepharose, His-tagged nanobodies (2 nmol) as prey; 20 mM HEPES, 150 mM NaCl, 1 mM DTT, 0.1% IGEPAL, pH 7.4; 4°C; SDS-PAGE; settings: both partners purified
T12 construct: mouse Cavin1 (PTRF), HR1 coiled-coil domain, residues 45-155; pGEX-4T2 with thrombin site; GST kept for the pull-down and the liposome pelleting assay; also called GST–mC1-HR1; GST-tagged mC1-HR1; source: E. coli BL21 CodonPlus (DE3), purified (glutathione Sepharose); not shown: GST, N-terminal, kept

[12] = target: T13, zebrafish Cavin4a HR1 domain (Danio rerio, UniProt A1L260); assay: ITC; NbA12 at 500 μM or NbB7 at 400 μM titrated into 30 μM (monomer) HR1 domain of cavins or His-MBP full-length mC1; GF150 buffer (20 mM HEPES pH 7.4, 150 mM NaCl), 25°C; single-site fit; settings: both partners purified
T13 construct: zebrafish Cavin4a, HR1 domain; Codon-optimised construct; also called zC4a-HR1; source: E. coli BL21 CodonPlus (DE3), purified (TALON, SEC)

[13] = target: T14, N-terminal fragment of mouse Cavin1 HR1 domain (residues 45–103) (Mus musculus (Mouse)., UniProt O54724); assay: as above; settings: both partners purified
T14 construct: mouse Cavin1 (PTRF), N-terminal part of the HR1 domain, residues 45-103; also called mC1-HR1(45–103); shorter fragment of mC1-HR1; source: E. coli BL21(DE3)pLysS, purified (TALON, SEC)

[14] = target: T15, full-length mouse Cavin1, His-MBP-tagged (Mus musculus (Mouse)., UniProt O54724); assay: as above; settings: both partners purified
T15 construct: mouse Cavin1 (PTRF), full length; also called His-MBP full-length mC1; full-length MBP-tagged mC1; source: E. coli BL21(DE3)pLysS, purified (TALON, SEC)
T15 sequence (O54724 whole entry): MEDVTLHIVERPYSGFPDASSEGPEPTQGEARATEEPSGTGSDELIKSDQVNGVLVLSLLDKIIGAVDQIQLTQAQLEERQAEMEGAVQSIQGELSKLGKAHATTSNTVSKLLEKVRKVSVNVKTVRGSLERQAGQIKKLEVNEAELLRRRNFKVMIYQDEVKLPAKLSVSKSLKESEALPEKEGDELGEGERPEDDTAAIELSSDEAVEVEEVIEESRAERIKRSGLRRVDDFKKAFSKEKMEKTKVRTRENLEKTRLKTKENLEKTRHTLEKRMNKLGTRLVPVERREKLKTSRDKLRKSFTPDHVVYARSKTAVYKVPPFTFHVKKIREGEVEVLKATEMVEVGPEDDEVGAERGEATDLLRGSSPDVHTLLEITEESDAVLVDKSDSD

T3 sequence (Q5PQY9 entry or part of it): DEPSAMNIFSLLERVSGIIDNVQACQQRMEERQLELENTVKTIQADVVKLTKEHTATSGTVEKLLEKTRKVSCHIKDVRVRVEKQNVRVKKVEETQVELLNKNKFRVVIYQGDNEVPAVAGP
T11 sequence (A1L260 16-123): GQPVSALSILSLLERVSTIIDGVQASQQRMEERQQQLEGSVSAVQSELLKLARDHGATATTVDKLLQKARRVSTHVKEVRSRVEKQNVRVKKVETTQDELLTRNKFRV
T5 sequence (Q6NZI2 whole entry): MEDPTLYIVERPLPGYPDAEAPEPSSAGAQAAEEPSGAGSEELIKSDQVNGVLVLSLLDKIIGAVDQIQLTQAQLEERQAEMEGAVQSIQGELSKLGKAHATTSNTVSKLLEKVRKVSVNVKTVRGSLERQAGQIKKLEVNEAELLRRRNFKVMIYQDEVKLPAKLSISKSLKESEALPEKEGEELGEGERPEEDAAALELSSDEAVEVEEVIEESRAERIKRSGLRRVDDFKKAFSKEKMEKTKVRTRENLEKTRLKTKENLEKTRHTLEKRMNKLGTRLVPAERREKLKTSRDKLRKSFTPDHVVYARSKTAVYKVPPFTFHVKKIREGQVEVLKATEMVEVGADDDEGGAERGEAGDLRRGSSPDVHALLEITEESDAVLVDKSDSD
T13 sequence (A1L260 whole entry, looked up, the tested form may be a part): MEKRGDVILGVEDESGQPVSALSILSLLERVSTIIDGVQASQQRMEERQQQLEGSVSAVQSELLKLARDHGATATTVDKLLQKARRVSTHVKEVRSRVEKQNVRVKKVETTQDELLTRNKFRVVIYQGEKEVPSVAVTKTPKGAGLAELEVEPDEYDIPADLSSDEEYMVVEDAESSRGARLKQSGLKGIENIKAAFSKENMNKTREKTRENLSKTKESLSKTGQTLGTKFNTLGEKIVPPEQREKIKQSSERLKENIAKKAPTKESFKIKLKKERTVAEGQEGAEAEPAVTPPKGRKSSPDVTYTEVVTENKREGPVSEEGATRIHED
T6 sequence (Q03135 whole entry): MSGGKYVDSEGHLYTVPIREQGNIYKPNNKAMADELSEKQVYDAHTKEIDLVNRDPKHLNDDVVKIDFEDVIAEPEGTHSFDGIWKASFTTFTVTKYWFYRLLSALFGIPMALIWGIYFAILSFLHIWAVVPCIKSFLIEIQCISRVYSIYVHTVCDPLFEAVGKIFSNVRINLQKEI

Binder | Kd [2] | Kd [3] | binding result [4] | Kd [6] | Kd [7] | binding result [8] | further results
mouse Cavin1 HR1 domain (residues 45–155) as crystallised with NbB7 (domain or fragment, UniProt O54724 45-155, looked up, mouse Cavin1 (PTRF), HR1 coiled-coil domain, residues 45-155 in the crystallised construct; residues 56-98 ordered; also called mC1-HR1; source: E. coli, purified (SEC)) LIKSDQVNGVLVLSLLDKIIGAVDQIQLTQAQLEERQAEMEGAVQSIQGELSKLGKAHATTSNTVSKLLEKVRKVSVNVKTVRGSLERQAGQIKKLEVNEAELLRRRNFKV | – | – | – | – | – | – | stoichiometry N [1]: 3
Nanobody NbB7 (VHH, the same chain is in PDB 9EGN, 9EG6 and 9EIU; source: E. coli WK6, periplasmic expression, purified (TALON, SEC)) VHH: QVQLQESGGGLVQAGGSLRLSCAVSGIRVNVNAMYWYRQAPGKQRELVAIITTFGSTNYADSAKGRFTISRDNTKNTVYLQMDNLKPEDTAVYYCNAPQFTDRYWGQGTQVTVSS | 140 ± 40 nM | 67 ± 20 nM | no binding | – | – | – | Kd [5]: 2890 ± 1010 nM
C-terminal GFP-tagged NbB7 (VHH, as the VHH of m1; pEGFP-N1; also called NbB7–GFP; source: HeLa, transiently transfected, in lysate; not shown: GFP, C-terminal, kept) VHH: QVQLQESGGGLVQAGGSLRLSCAVSGIRVNVNAMYWYRQAPGKQRELVAIITTFGSTNYADSAKGRFTISRDNTKNTVYLQMDNLKPEDTAVYYCNAPQFTDRYWGQGTQVTVSS | – | – | – | – | – | – | binding result (endogenous Cavin1 (HeLa)): binds; binding result (endogenous CAV1 (HeLa)): binds
nanobody NbB7 (VHH, also in the deposited structures PDB 9EGN, 9EG6, 9EIU; alpaca nanobody raised against mC1-HR1; Cloned in pMES4 with a C-terminal 6x histidine tag; source: E. coli WK6, periplasmic expression, purified (TALON, SEC); not shown: His6, C-terminal, kept) VHH: QVQLQESGGGLVQAGGSLRLSCAVSGIRVNVNAMYWYRQAPGKQRELVAIITTFGSTNYADSAKGRFTISRDNTKNTVYLQMDNLKPEDTAVYYCNAPQFTDRYWGQGTQVTVSS | – | – | – | 142 nM | 66.7 nM | no binding | Kd [9]: 520 nM
Nanobody NbA12 (VHH, Selected by phage display from an alpaca immunised with mC1-HR1; source: E. coli WK6, periplasmic expression, purified (TALON, SEC)) VHH: QVQLQESGGGLVQAGGSLRLSCAASGFTFDDYAIGWFRQAPGKEREGVSCITSSDGSTYYADSVKGRFTISSDNAKNTVYLQMNSLKPEDTAVYYCAAESWPPLCHYSGMDYWGKGTQVTVSS | 3020 ± 1940 nM | 2170 ± 20 nM | no binding | – | – | – | binding result [10]: no binding
nanobody NbA12 (VHH, alpaca nanobody raised against mC1-HR1; Cloned in pMES4 with a C-terminal 6x histidine tag; source: E. coli WK6, periplasmic expression, purified (TALON, SEC); not shown: His6, C-terminal, kept) VHH: QVQLQESGGGLVQAGGSLRLSCAASGFTFDDYAIGWFRQAPGKEREGVSCITSSDGSTYYADSVKGRFTISSDNAKNTVYLQMNSLKPEDTAVYYCAAESWPPLCHYSGMDYWGKGTQVTVSS | – | – | – | 3000 nM | 2000 nM | no binding | binding result [11]: binds; binding result [12]: no binding; binding result [9]: binds; binding result [13]: binds; binding result [14]: binds
